B1: Hairpin Ribozyme (parent)
chain: GUCCUCUUUCACGUGCGCGUGAAAGAGAGAAGUGAACCAGAGAAACACACGUUGUGGUAUAUUACCUGGUA

In this data set the parent is B1. Briefly: self-cleavage, relative activity (ratio to wild type); higher = more cleavage; co-transcriptional.
With G27C U63A, the self-cleavage amounted to 0.174.
The figure for G27C U63C is 0.222.
The figure for A26G C65A is 0.702; for A26G C46G it is 0.19.
The figure for A26U U53G is 0.489; for G27C U53G it is 0.169; for G27C U53A it is 0.19.
Regarding A28C U52G, the self-cleavage is 0.301.
The figure for A28G A61G is 0.279.
The same measure for A28G A49C: 0.208; for G27C C65U: 0.159; for G27C A47G: 0.125.
The figure for G27A G54C is 0.105; for G27U C66U it is 0.288; for G27U C66G it is 0.126.
Take A26G G57U: the self-cleavage turned out to be 0.252.
The same measure for A28U A30U: 0.136; for A28C A45C: 0.0427; for A26C G32U: 0.196.
Regarding G27U U58C, the self-cleavage was found to be 0.318.
For A26G A59U, the self-cleavage is 0.233.
The figure for A26G A71C is 1.55; for A26U A59G it is 0.181; for G27U A71U it is 0.166.
Take G27U A71G: the self-cleavage amounted to 0.261.
The same measure for A28G A36U: 0.7; for A26U U67C: 0.176.
The same measure for A26U C38U: 0.409.
Regarding A26U C38G, the self-cleavage came to 0.109.
The same measure for A26G C50G: 0.211; for A28U A43G: 0.0987.
Turning to G27A G34U, the self-cleavage came out at 1.3.
The same measure for G27A G34C: 0.945; for G27A G42C: 0.145; for G27A A30C: 0.141.
In the case of G27A A30G, the self-cleavage turned out to be 0.0562.
The figure for A28C A61C is 0.122; for G27U C48G it is 0.137; for A28U A35C it is 0.704.
The figure for A28U A35G is 0.599.
Consider A28G A35U, for which the self-cleavage came out at 1.13.
The same measure for A26U C37A: 0.243; for A26U C37G: 0.185; for A26G C38A: 0.131.
The same measure for G27U A39C: 0.107; for G27U A39U: 0.144; for A28C A44C: 0.134.
The same measure for A28C A44G: 0.0991; for G27A G69C: 0.198; for A28G U60C: 0.795.
A28G U60G: the self-cleavage was 0.97.
The figure for A26C U70G is 0.509; for A28U A39U it is 0.222; for A28U A39G it is 0.143.
The same measure for A26G A43U: 0.121; for A26G A36U: 0.326.
The figure for A26G A36C is 0.474; for A26G U55C it is 0.206.
In the case of A26G U55G, the self-cleavage stood at 0.153.
Turning to G27C G40U, the self-cleavage stood at 0.0774.
Take A28U A59G: the self-cleavage worked out at 0.243.
Turning to A28C C65G, the self-cleavage turned out to be 0.229.
The figure for A26C G56U is 0.23; for A28G C38U it is 0.547.
For A28G C38A, the self-cleavage turned out to be 0.168.
The same measure for A28G C38G: 0.169; for A26G G54A: 0.605.
As for G27A A61U, the self-cleavage was found to be 0.155.
With A28C A71G, the self-cleavage turned out to be 0.457.
Consider A28C A71C, for which the self-cleavage was determined as 1.05.
The figure for A28C A71U is 0.291.
The figure for G27C G42A is 0.148.
The same measure for G27C G42C: 0.165; for A28U A71C: 1.1.
For the variant A28U A71U, the self-cleavage worked out at 0.371.
Consider G27C A61U, for which the self-cleavage was determined as 0.119.
The same measure for G27C G32U: 0.15; for A26U U52G: 0.442; for A28C C50A: 0.151.
With A28C C50G, the self-cleavage was 0.107.
The figure for A28G C46G is 0.134; for A26U C48G it is 0.117; for A28C U67C it is 0.146.
The figure for A26G A49U is 0.288; for A26G A49C it is 0.148; for G27U A28G it is 0.119.
On to A28G G42A, for which the self-cleavage was found to be 0.21.
As for A28C A47U, the self-cleavage was 0.0267.
Regarding G27U G56C, the self-cleavage came to 0.149.
The figure for G27A C38U is 0.2; for A26G U53G it is 0.682; for A28U A31G it is 0.325.
The figure for A28G G69C is 0.46; for G27A U67C it is 0.141; for G27U U62C it is 0.191.
For the variant A28C U53C, the self-cleavage came out at 0.598.
As for G27A C37G, the self-cleavage came out at 0.15.
The figure for A26U C66A is 0.146.
Consider A26U C66U, for which the self-cleavage is 0.276.
The figure for A28G A64G is 0.425; for A28G G68A it is 0.349.
The same measure for A28G U58A: 0.653; for A26G U52G: 0.721; for A26G U52C: 0.822.
As to G27U G51C, the self-cleavage was determined as 0.158.
The figure for G27U G68A is 0.128.
The same measure for A26U A39C: 0.225.
The figure for A26U A39G is 0.207.
In the case of A28G U67A, the self-cleavage came to 0.31.
For the variant A28C U63A, the self-cleavage came out at 0.0573.
The same measure for A28C C38A: 0.205.
Consider A28C A35G, for which the self-cleavage was found to be 0.445.
The figure for A28C A35C is 0.864.
In the case of A28C A35U, the self-cleavage worked out at 0.295.
For A26C U53C, the self-cleavage is 0.741.
On to G27C A41U, for which the self-cleavage was found to be 0.367.
The figure for G27C A41C is 0.228; for G27U A43U it is 0.106; for A28G A39G it is 0.357.
With A26U U63A, the self-cleavage worked out at 0.127.
The figure for G27U A49U is 0.141; for A28C A31C it is 0.
The same measure for A26C G68C: 0.147.
The same measure for G27A A71G: 0.545; for A26U A71G: 0.781.
For A26C U63G, the self-cleavage is 0.0806.
For the variant G27C G54A, the self-cleavage amounted to 0.133.
With A26U U62G, the self-cleavage worked out at 0.141.
The figure for A28G G34U is 1.65; for A28G G34C it is 0.999; for G27U U55G it is 0.224.
As for G27U U55C, the self-cleavage turned out to be 0.113.
Regarding G27A G51A, the self-cleavage was found to be 0.337.
The same measure for G27A G51U: 0.458; for G27C U62A: 0.205.
The figure for A28G G40U is 0.19; for A26C G29C it is 0.136.
The figure for A26C G29U is 0.109; for A26C G29A it is 0.149; for G27A C65U it is 0.145.
For G27A C65A, the self-cleavage is 0.396.
In the case of G27U U67A, the self-cleavage was 0.177.
Take G27A A47C: the self-cleavage was found to be 0.214.
The same measure for G27U A45U: 0.0868; for G27U A45C: 0.0886.
The figure for G27U A45G is 0.131; for G27A U60C it is 0.657; for A26C G51A it is 0.67.
On to G27A G40C, for which the self-cleavage turned out to be 0.104.
The figure for A28G G29C is 0.12; for G27A A28U it is 0.393.
The figure for A28G A41G is 0.908; for A28G A41C it is 0.961.
The figure for A28C A43G is 0.129; for A26G G56U it is 0.151.
As for A26G G56C, the self-cleavage turned out to be 0.14.
Consider G27U U70C, for which the self-cleavage was found to be 0.105.
The same measure for G27C G69A: 0.0883; for A26U G51A: 0.661; for A26U G51U: 0.614.
Turning to A26U G51C, the self-cleavage worked out at 0.447.
Turning to A28G A45U, the self-cleavage worked out at 0.201.
The same measure for G27A A49C: 0.154; for G27A A49G: 0.237; for G27A A49U: 0.112.
Regarding G27A A39C, the self-cleavage is 0.2.
The figure for A28U A49C is 0.18.
